In patent US20210395392A1 (Bristol-Myers Squibb, published 2021):

T1: Human MerTK on hMerTK-expressing cells (human, UniProt Q12866 21-999)
T1 sequence: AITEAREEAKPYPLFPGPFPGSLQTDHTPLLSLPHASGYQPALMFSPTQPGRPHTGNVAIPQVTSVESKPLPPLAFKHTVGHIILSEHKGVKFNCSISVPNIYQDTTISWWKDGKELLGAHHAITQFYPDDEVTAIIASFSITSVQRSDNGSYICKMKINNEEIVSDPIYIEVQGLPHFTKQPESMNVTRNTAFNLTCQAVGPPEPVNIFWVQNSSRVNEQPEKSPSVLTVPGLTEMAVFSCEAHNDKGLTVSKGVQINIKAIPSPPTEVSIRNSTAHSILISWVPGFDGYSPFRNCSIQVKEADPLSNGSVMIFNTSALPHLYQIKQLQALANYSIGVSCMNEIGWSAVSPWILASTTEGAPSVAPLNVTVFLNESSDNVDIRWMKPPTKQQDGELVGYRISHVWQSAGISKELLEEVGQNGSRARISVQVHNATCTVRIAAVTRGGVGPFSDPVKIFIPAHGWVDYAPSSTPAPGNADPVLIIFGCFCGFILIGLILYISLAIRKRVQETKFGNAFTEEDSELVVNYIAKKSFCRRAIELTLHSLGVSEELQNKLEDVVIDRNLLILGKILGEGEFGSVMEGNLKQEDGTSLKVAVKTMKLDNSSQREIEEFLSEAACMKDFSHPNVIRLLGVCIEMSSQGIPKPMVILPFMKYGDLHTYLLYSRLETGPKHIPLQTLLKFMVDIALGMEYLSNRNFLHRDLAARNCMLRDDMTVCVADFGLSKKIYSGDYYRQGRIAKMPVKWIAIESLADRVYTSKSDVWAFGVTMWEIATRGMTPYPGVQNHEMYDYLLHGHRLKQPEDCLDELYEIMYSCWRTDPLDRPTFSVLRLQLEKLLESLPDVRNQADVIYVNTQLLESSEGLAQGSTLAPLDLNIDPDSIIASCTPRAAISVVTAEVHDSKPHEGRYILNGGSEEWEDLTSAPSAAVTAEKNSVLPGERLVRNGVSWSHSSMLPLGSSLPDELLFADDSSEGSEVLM

T2: Recombinant soluble extracellular domain of human MerTK (human, UniProt Q12866 21-505)
T2 construct: SPR analyte; also called hMerTK
T2 sequence: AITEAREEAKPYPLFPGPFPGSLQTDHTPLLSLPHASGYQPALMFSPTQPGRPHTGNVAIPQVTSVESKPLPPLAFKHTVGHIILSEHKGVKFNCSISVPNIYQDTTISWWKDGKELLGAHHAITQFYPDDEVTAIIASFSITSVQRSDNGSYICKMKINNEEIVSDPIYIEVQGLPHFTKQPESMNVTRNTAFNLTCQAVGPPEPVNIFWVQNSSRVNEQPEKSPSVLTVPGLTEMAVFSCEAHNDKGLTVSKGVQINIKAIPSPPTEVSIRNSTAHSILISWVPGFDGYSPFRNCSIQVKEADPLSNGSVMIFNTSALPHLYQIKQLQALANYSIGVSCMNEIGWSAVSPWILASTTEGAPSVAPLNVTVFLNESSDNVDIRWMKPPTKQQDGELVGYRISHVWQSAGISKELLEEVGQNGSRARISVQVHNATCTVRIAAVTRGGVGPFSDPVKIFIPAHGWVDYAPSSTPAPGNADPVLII

T3: Recombinant soluble extracellular domain of cynomolgus monkey MerTK (cynomolgus monkey, UniProt Q12866 21-505 (human entry))
T3 construct: SPR analyte; also called cMerTK; Cynomolgus MerTK
T3 chain: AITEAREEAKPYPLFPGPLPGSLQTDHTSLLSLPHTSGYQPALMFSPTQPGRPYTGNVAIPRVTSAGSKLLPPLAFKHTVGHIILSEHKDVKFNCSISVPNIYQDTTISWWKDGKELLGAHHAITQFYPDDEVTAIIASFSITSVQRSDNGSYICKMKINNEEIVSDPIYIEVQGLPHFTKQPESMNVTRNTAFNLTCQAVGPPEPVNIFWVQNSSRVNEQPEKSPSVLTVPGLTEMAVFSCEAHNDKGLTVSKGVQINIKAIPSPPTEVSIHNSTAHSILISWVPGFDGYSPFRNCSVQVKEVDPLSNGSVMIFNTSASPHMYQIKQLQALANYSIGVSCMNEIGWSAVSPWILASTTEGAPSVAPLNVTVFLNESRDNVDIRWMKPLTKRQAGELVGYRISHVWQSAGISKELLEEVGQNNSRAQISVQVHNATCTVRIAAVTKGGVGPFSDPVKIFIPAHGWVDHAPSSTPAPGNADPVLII

T4: Recombinant soluble extracellular domain of mouse MerTK (mouse, UniProt Q60805 19-497)
T4 construct: SPR analyte; also called mMerTK
T4 sequence: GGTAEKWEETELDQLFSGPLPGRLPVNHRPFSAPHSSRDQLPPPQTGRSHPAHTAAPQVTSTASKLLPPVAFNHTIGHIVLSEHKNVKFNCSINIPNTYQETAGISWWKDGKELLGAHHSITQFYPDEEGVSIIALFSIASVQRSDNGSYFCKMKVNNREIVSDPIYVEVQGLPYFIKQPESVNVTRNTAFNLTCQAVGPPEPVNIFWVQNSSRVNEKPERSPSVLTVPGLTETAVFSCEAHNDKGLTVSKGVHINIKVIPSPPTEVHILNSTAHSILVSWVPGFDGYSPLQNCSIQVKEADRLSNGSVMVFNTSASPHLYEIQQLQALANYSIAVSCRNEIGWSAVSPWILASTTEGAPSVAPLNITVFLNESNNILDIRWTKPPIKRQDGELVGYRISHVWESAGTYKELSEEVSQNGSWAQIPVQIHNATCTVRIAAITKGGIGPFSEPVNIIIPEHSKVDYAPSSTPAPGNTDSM


How the values were obtained:
[1] = target: T1, Human MerTK on hMerTK-expressing cells; assay: cell-based or functional assay
[2] = target: T2, Recombinant soluble extracellular …; assay: SPR, mAb captured, soluble MerTK ECD as analyte, 37 C
Experimental: (§1) MerTK Abs were captured on the chip. Recombinant soluble forms of the extracellular domains of human, cynomolgus monkey, and mouse MerTK polypeptide were injected as analytes at multiple concentrations each. The resulting sensorgrams were double-referenced and fitted to a 1:1 Langmuir binding model with mass transport.

[3] = target: T3, Recombinant soluble extracellular …; assay: as above
Experimental: as §1

[4] = target: T4, Recombinant soluble extracellular …; assay: summary sentence of the description; assay not named

| Binder | Inhibition of Efferocytosis IC50 [1] | Signaling Assay, hMerTK with Gas6, pSTAT1 IC50 (nM) [1] | Signaling Assay, hMerTK without Gas6, pSTAT1 IC50 (nM) [1] | Kd [2] | koff [2] | kon [2] | t1/2 [2] | Kd [3] | koff [3] | kon [3] | t1/2 [3] | binding result [4] |
| --- | --- | --- | --- | --- | --- | --- | --- | --- | --- | --- | --- | --- |
| HuMAb 1B4 (antibody, human IgG1, kappa, V domains shown, Human anti-hMerTK mAb, Bin 1) VH: QLQLQESGPGLVKPSETLSLTCAVSGYSISSGNYWGWIRQSPGKGLEWIGSVDHSGSTYYSPSLKSRVTISVDTSKNQFSLKLNSVTAADTADYYCARNTMIRGVMDWFDPWGQGTLVTVSS VL: AIQLTQSPSSLSASVGDRVTITCRASQGISSALAWYQQKPGKAPKVLIYDASSLESGVPSRFSGSGSGTDFTLTISSLQPEDFATYYCQQFRSYPTFGQGTKVEIKR | 0.072 nM | 0.33 nM | > 100 nM | 34.4 nM | 0.00844 s⁻¹ | 250000 M⁻¹ s⁻¹ | 1.4 min | 54.9 nM | 0.00796 s⁻¹ | 145000 M⁻¹ s⁻¹ | 1.5 min | no binding |
| HuMAb 4K10 (antibody, human IgG1, kappa, V domains shown, Human anti-hMerTK mAb, Bin 3) VH: QVQLQQWGAGLLKPSETLSLTCAVYGGSFSGYYWSWLRQPPGKGLEWIGEISHSGSTNYNPSLKSRVTISVDTSKNQFSLKLSSVTAADTAVYYCARALSRYWYFDLWGRGTLVTVSS VL: EIVLTQSPATLSLSPGERATLSCRASQSASNYLAWYQQKPGQAPRLLIYDASNRATGIPARFSGSGSGTDFTLTISSLEPEDFAVYYCYQRSQWPISFGQGTRLEIKR | > 10 nM | 5.42 nM |  | 27.8 nM | 0.00336 s⁻¹ | 121000 M⁻¹ s⁻¹ | 3.4 min | 31.3 nM | 0.00379 s⁻¹ | 121000 M⁻¹ s⁻¹ | 3 min | no binding |
| HuMAb 25J60 (antibody, human IgG1, kappa, V domains shown, Human anti-hMerTK mAb, Bin 2, derived from HuMAb 25B10 by optimization) VH: QVQLVQSGAEVKKPGASVKVSCKTSGNTQIRYYMYWVRQAPGQGLEWMGILNPNQDQTTYAQKFQGRVTMTRDTSTSTVYMELSSLRSEDTAVYYCATTYRYYMDVWGQGTTVTVSS VL: not shown | 0.051 nM | 0.093 nM | > 100 nM | 2.3 nM | 0.000975 s⁻¹ | 421000 M⁻¹ s⁻¹ | 11.9 min | 2.5 nM | 0.00099 s⁻¹ | 400000 M⁻¹ s⁻¹ | 11.7 min | no binding |

The remaining lines, values ahead:

| Inhibition of Efferocytosis IC50 [1] | Signaling Assay, hMerTK with Gas6, pSTAT1 IC50 (nM) [1] | Signaling Assay, hMerTK without Gas6, pSTAT1 IC50 (nM) [1] | Kd [2] | koff [2] | kon [2] | t1/2 [2] | Kd [3] | koff [3] | kon [3] | t1/2 [3] | binding result [4] | Binder |
| --- | --- | --- | --- | --- | --- | --- | --- | --- | --- | --- | --- | --- |
| 0.352 nM | 3.41 nM | > 100 nM | 10.6 nM | 0.000775 s⁻¹ | 73500 M⁻¹ s⁻¹ | 14.9 min | 24.7 nM | 0.00126 s⁻¹ | 50900 M⁻¹ s⁻¹ | 10.2 min | no binding | HuMAb 22I16 (antibody, human IgG1, kappa, V domains shown, Human anti-hMerTK mAb, Bin 1; also called 22116) VH: EVQLVESGGGLVQPGGSLRLSCAASGFTFSSYSMNWVRQAPGKGLEWVSYIISGSDTIFYADSVKGRFTISRDNAKNSLYLQMNSLRDEDTAVYYCARDETVVRGVINYFDYWGQGTLVTVSS VL: AIQLTQSPSSLSASVGDRVTITCRSSQGISSALAWYQQKPGKAPKLLIYDASSLESGVPSRFSGSGSGTDFTLTISSLQPEDFATYYCQQFISYPTFGQGTRLEIKR |
| 0.047 nM | 0.572 nM | > 100 nM | 5.7 nM | 0.00168 s⁻¹ | 299000 M⁻¹ s⁻¹ | 6.9 min | 14 nM | 0.0014 s⁻¹ | 100000 M⁻¹ s⁻¹ | 8.3 min | no binding | HuMAb 8N42 (antibody, V domains shown, Human anti-hMerTK mAb, Bin 1) VH: QVQLQQWGAGLLKPSETLSLTCAVYGGSFSIYYWSWIRQPPGKGLELIGEINDEGNTNYNPSLKSRVTISVDTSKNQFSLKLSSVTAADTAVYYCARGGTGDIHAFDIWGQGTMVTVSS VL: DIQMTQSPSSLSASVGDRVTITCRASQGISKWLAWYQQKPEKAPKSLIYAASSLQSGVPSRFSGSGSGTDFTLTISSLQPEDFATYYCQQYNSYPWTFGQGTKVEIKR |
| 0.093 nM | 0.227 nM | > 100 nM | 4.1 nM | 0.00123 s⁻¹ | 297000 M⁻¹ s⁻¹ | 9.6 min | 4.5 nM | 0.00124 s⁻¹ | 274000 M⁻¹ s⁻¹ | 4.5 min | no binding | HuMAb 25J80 (antibody, human IgG1, kappa, V domains shown, Human anti-hMerTK mAb, Bin 2, derived from HuMAb 25B10 by optimization) VH: QVQLVQSGAEVKKPGASVKVSCKTSGRTFIRYYMHWVRQAPGQGLEWMGIIWPNGDQTTYAQKFQGRVTMTRDTSTSTVYMELSSLRSEDTAVYYCATTYKYAMDVWGQGTTVTVSS VL: EIVLTQSPGTLSLSPGERATLSCRASQSVRSNYLAWYQQKPGQAPRLLIYGASSRATGIPDRFSGSGSGTDFTLTISRLEPEDFAVYYCQQYESPPRTFGQGTKVEIKR |
